Where no end group is shown, it is not given here.
T1: TGR12-GFP (fused protein of human TGR12 and GFP, encoded by the DNA of SEQ ID NO: 31), stably expressed on … (human, UniProt Q96LB1 1-330)
T1 sequence: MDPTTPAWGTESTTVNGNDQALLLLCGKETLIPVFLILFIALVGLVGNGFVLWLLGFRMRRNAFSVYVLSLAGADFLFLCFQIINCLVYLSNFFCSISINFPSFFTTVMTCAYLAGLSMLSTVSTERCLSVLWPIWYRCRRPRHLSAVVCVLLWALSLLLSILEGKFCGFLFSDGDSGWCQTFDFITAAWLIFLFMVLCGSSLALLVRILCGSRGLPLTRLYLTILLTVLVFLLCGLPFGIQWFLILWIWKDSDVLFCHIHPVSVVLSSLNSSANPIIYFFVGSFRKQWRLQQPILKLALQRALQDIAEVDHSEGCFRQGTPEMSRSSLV

T2: human TGR12 (untagged) (human, UniProt Q96LB1 1-330)
T2 sequence: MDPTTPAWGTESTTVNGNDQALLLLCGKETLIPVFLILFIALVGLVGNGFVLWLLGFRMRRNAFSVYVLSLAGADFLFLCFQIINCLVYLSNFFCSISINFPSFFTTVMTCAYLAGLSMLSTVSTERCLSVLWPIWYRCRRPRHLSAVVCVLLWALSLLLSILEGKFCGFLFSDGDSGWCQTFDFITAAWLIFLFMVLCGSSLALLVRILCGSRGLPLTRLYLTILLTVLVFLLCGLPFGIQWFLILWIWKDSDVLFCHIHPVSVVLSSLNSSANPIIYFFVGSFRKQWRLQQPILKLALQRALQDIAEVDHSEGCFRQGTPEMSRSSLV

T3: TGR12-GFP (fused protein of human TGR12 and GFP, encoded by the DNA of SEQ ID NO: 45), stably expressed on … (human, UniProt Q96LB1 1-330)
T3 construct: also called TGR12-GFP expression CHO cell line; not shown: GFP (Wako Pure Chemical) fused after the C-terminus of TGR12
T3 sequence: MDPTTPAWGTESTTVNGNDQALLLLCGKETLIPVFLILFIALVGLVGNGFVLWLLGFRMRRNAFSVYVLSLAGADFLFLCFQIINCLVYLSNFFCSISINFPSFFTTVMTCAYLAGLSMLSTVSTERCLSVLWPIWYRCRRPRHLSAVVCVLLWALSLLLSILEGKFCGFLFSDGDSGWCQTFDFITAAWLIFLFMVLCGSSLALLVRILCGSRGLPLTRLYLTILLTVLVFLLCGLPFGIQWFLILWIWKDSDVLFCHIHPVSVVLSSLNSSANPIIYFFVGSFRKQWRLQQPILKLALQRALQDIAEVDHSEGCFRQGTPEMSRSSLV


Key:
[1] = target: T1, TGR12-GFP (fused protein of human TGR12 …); experiment: cell-based or functional assay
human TGR12 (untagged) = target: T2, human TGR12 (untagged); experiment: cell-based or functional assay
[2] = target: T3, TGR12-GFP (fused protein of human TGR12 …); experiment: competition with 200 pM [125I]-rCST14 (Y0) on CHO-TGR12GFP cells, Hill plot
Method: The binding assay using CHO-TGR12GFP was performed as follows. […] After incubation overnight, the cells were washed 3 times with ice-chilled assay buffer (MEM-α, 20 mM HEPES (pH 7.4), 0.05% BSA) and 250 μL of the assay buffer was added thereto. […] After washing 3 times with 500 μL of the assay buffer, the cells were lysed in 250 μL of 0.5N NaOH and the lysate was recovered for measurement of the radioactivity.
Based on the above, non-specific binding was estimated as the activity of 10 μM rat cortistatin-14 and the IC₅₀ value of each peptide was obtained from Hill plot analysis.

Row | EC50 in the calcium increasing effect on CHO-TGR12 [1] | maximum activity in the calcium increasing effect (FLIPR), CHO-TGR12, at 0.3 nM [1] | maximum activity in the calcium increasing effect (FLIPR), CHO-TGR12, at 3 nM [1] | maximum activity in the calcium increasing effect (FLIPR), CHO-TGR12, at 30 nM [1] | maximum activity in the calcium increasing effect (FLIPR), CHO-TGR12, at 300 nM [1] | maximum activity in the calcium increasing effect (FLIPR), CHO-TGR12, at 3000 nM [1] | EC50 in the degranulation on LAD 2 (human TGR12 (untagged)) | degranulation of LAD 2 (beta-hexosaminidase release, % of total) at 10 nM (human TGR12 (untagged)) | degranulation of LAD 2 (beta-hexosaminidase release, % of total) at 30 nM (human TGR12 (untagged)) | degranulation of LAD 2 (beta-hexosaminidase release, % of total) at 100 nM (human TGR12 (untagged)) | degranulation of LAD 2 (beta-hexosaminidase release, % of total) at 300 nM (human TGR12 (untagged)) | degranulation of LAD 2 (beta-hexosaminidase release, % of total) at 1 µM (human TGR12 (untagged)) | degranulation of LAD 2 (beta-hexosaminidase release, % of total) at 3 µM (human TGR12 (untagged)) | IC50 [2] | maximum activity in the calcium increasing effect (FLIPR), RBL2H3-TGR12, at 1 nM (human TGR12 (untagged)) | maximum activity in the calcium increasing effect (FLIPR), RBL2H3-TGR12, at 10 nM (human TGR12 (untagged)) | maximum activity in the calcium increasing effect (FLIPR), RBL2H3-TGR12, at 100 nM (human TGR12 (untagged)) | maximum activity in the calcium increasing effect (FLIPR), RBL2H3-TGR12, at 1 µM (human TGR12 (untagged)) | maximum activity in the calcium increasing effect (FLIPR), RBL2H3-TGR12, at 10 µM (human TGR12 (untagged)) | Binder
1 | ~161 nM | 287 fluorescence intensity | 410 fluorescence intensity | 195 fluorescence intensity | 23000 fluorescence intensity | 23300 fluorescence intensity | ~51 nM | 7.4% | 24.8% | 49.4% | 65.8% | 68.9% | 63.3% | 47 nM |  |  |  |  |  | HSDGIFTDSYSRYRKQMAVKKYLAAVLGKRYKQRVKNK (peptide, UniProt P18509 132-169, looked up, not fully specified; ends and bridges not checked, domain: PACAP-38) [human PACAP38 (pituitary adenylate cyclase activating polypeptide 38)]
2 | ~93 nM | 48 fluorescence intensity | 58 fluorescence intensity | 939 fluorescence intensity | 23000 fluorescence intensity | 23700 fluorescence intensity | ~51 nM | 2.6% | 19.6% | 59.4% | 71.1% |  | 69.1% | 264 nM | 40 fluorescence intensity | 29 fluorescence intensity | 5300 fluorescence intensity | 11500 fluorescence intensity | 12700 fluorescence intensity | HSDGIFTDSYSRYRKQMAVKKYLAAVL (peptide, UniProt P18509 132-158, looked up, not fully specified; ends and bridges not checked, domain: PACAP-27) [human PACAP27 (pituitary adenylate cyclase activating polypeptide 27)]

Reference: patent US20100068208A1, “Degranulation inhibitor” (priority 2005, published 2010)
